This note sets out measurements from patent US8624002B2, “Prostaglandin E2 binding proteins and uses thereof” (AbbVie, Inc., priority 2008, dated 2014).

The nature of experiment [1]: Biotin-PGE2 ELISA (PGE2-biotinamide binding to captured IgG). The protocol:
Enzyme linked immunosorbent assays to screen for antibodies that bind prostaglandin E2 were performed according to at least one of the two following methods.
ELISA plates (Costar 3369, Corning, N.Y.) were coated with 50 μl of anti-host Fc IgG (Sigma, St. Louis, Mo.) at 2 μg/ml in PBS (Invitrogen Carlsbad, Calif.). Following an overnight incubation at 4° C., washed with PBS and the plate was blocked with 200 μl Superblock (Pierce #37535, Rockford, Ill.). The IgG containing samples were diluted to 1 μg/ml in Assay Buffer (10% Superblock in PBS containing 0.05% Surfactamps (Pierce #37535, Rockford, Ill.) and 50 μl/well added to each well and incubated for 1 hour at room temperature. Plates were washed four times with Tween-Tris Buffered Solution (TTBS). […] The titration curve samples were added to each IgG sample at 50 μl/well and incubated for 1 hour at room temperature. The plates were washed as previously described and 50 μl of 1:5000 dilution of streptavidin polyhrp40 (Fitzgerald Industries, Concord, Mass.) in Assay Buffer was added to each well and incubated for 45 minutes at room temperature. A final wash step was performed and the plates were developed using a single step TMB system (Sigma #T8665, St. Louis, Mo.) and 100 μl/well 2N H2SO4. Plates were read at 450 nm on a Molecular Devices Spectramax plate reader (Sunnyvale, Calif.). EC50 was determined using GraphPad Prism 5 (GraphPad Software, La Jolla, Calif.).
For orientation: ELISA stands for enzyme-linked immunosorbent assay.

A short description of experiment [2]: Biotin-PGE2 competition ELISA (prostaglandin selectivity). The experiment is classed as binding. The protocol: Competition enzyme linked immunosorbent assays were performed to determine prostaglandin binding specificity for antibodies that bind prostaglandin E2, according to at least one of the two following methods.
ELISA plates (Costar 3369, Corning, N.Y.) were coated with 50 μl/well of anti-host Fc IgG (Sigma, St. Louis, Mo.) at 2 μg/ml in PBS (Invitrogen, Carlsbad, Calif.). Following an overnight incubation at 4° C., the plate was blocked with 200 μl Superblock (Pierce #37535, Rockford, Ill.). The IgG samples were diluted to 6 μg/ml in Assay Buffer (10% Superblock in PBS containing 0.05% Surfactamps (Pierce #37535, Rockford, Ill.). The PGE2-biotinamide was diluted to 3 nM in Assay Buffer. A titration curve in Assay Buffer was prepared for the prostaglandins PGA2 (Cayman Chemicals, Ann Arbor, Mich.), PGD2 (Cayman Chemicals, Ann Arbor, Mich.) and PGE2 (Cayman Chemicals, Ann Arbor, Mich.) starting at 300 nM by a 1:10 serial dilution. The reagents were added to tubes at a volume of 50 μl each/tube and preincubated for 1 hour at room temperature. Following the preincubation, the mix was transferred to the blocked plates and allowed to incubate for 1 hour at room temperature. Next, the plates were washed four times with Tween 20-Tris buffered solution (TTBS). Streptavidin polyhrp40 in Assay Buffer (Fitzgerald Industries, Concord, Mass.) at a 1:5000 dilution was then added to the wells and incubated for 45 minutes at room temperature. A final wash step was performed and the plates were developed using a single step TMB system (Sigma #T8665, Sigma, St. Louis, Mo.) and 100 μl/well 2N H2SO4. Plates were read at 450 nm on a Molecular Devices Spectramax plate reader (Sunnyvale, Calif.). […] IC50 number was determined using GraphPad Prism 5 (GraphPad Software, La Jolla, Calif.). The cross reactivity index was then calculated by IC50 of PGE2/IC50 of other prostaglandin(s).

For experiment [3], the system named is mouse collagen-induced arthritis. Nature of the experiment: Collagen-induced arthritis. The experiment is classed as in vivo, DBA/J mice. Conditions: 8 mg/kg, 2×/week, i.p. As for the experimental part:
Type II bovine collagen (lyophilized) was obtained from the University of Utah (Salt Lake City, Utah). Male DBA/J mice (8-10-week-old, Jackson Laboratories, Bar Harbor, Me.) were immunized intradermally at the base of the tail with 100 μL of emulsion containing 100 μg of type II bovine collagen dissolved in 0.1 N of acetic acid and 100 μg of heat-inactivated Mycobacterium tuberculosis H37Ra (Complete Freund's Adjuvant, Difco, Laurence, Kans.). Twenty-one days after immunization with collagen, mice were boosted IP with 1 mg of Zymosan A (Sigma, St. Louis, Mo.). Following the boost, mice were monitored daily for arthritis. Each paw was scored by the following criteria: 0=normal; 1=swelling in one site, foot, or ankle; 2=swelling in foot and ankle; and 3=ankylosis. Scores were summed for each animal, and total average of all animals in each group was expressed as MAS. In addition to clinical scores, mice were also evaluated for paw-edema using Dyer spring calipers model #310-119. […]
Micro-computed tomography was performed on a Scanco μCT-40 unit (Scanco Medical AG) at 60 kVp at 160 μA. The hind paws (stored in 70% ethanol) were secured in imaging tubes and the tarsal bone volume was measured for a 1.8-mm section of the mouse ankle from the base of the tibia to the tarsal/metatarsal joint at a resolution of 18 μm. The raw micro-computed tomography image was then analyzed using the Scanco AG μCT Evaluation program.
For histopathology analysis, formalin-fixed paws were sectioned and stained with Gills 3 hematoxylin (Richard-Allan Scientific, Kalamazoo, Mich.) and eosin with phloxine (Newcomer Supply, Middleton, Mich.). Severity of disease was evaluated histologically using the following criteria: 0=normal; 1=minimal change; 2=mild change; 3=moderate change; and 4=severe change. Scores were summed for each animal, and the total was expressed as an average of all animals in each group.
The therapeutic effects of anti-PGE2 alone was evaluated in mouse (male DBA/1J) collagen-induced arthritis, a standard preclinical model for human rheumatoid arthritis. […]

B1: 2B5-8.0: recombinant anti-PGE2 antibody from solved 2B5 sequence; VH SEQ ID NO 42, VL SEQ ID NO 43 (antibody, V domains shown)
VH: QVQLQQSGPELVRPGSSVKISCKASGYTFTKYWLGWVKQRPGHGLEWIGDIYPGYDYTHYNEKFKDKATLTVDTSSSTAYMQLSSLTSEDSAIYYCARSDGSSTYWGQGTLVTVSA
VL: DVLMTQTPLSLPVSLGDQASISCTSSQNIVHSNGNTYLEWYLQRPGQSPKLLIYKVSNRFSGVPDRFSGSGSGTVFTLKISRVEAEDLGVYYCFQVSHVPYTFGGGTKLEIKR
Consider B1, for which, in experiment [1], the midpoint of the response, the EC50, lay at 1.03 nM and the “ability to bind PGE2 in ELISA” value is “potently bound to PGE2”. Also, the “PG Selectivity in Biotin-PGE2 Competition ELISA (CRI %) PGA2” value in experiment [2] (PGA2) was 0.21%. For the same molecule, the “PG Selectivity in Biotin-PGE2 Competition ELISA (CRI %) PGD2” value in experiment [2] (PGD2) was under 0.01%. Further, the “PG Selectivity in Biotin-PGE2 Competition ELISA (CRI %) PGE1” value in experiment [2] (PGE1) stood at 28%. For the same molecule, the “Paw Swelling (AUC) (mm # days)” value in experiment [3] is reported as 8.4 ± 1.3 mm # days. Also, in experiment [3] (micro CT tarsal bone volume), the “Bone Volume (mm^3)” value was found to be 1.6 ± 0.1 mm^3. In addition, in experiment [3] (treatment after disease onset), the “MAS (AUC) (Score # days)” value stood at 57.4 ± 6.7 Score # days.

In general, EC50 refers to the concentration giving half of the maximal effect. Low values mean greater potency, high ones weaker potency.
